Results from patent US20040081647A1 (published 2004).

Target: T1, human TNFα fusion protein with an N-terminal S-Tag (human, UniProt P01375 77-233)
T1 construct: Constructed, expressed and purified by the applicants; also called S-TNF; not shown: 15 amino acid S-Tag peptide (Novagen)
Assay: indirect ELISA: sp55 from conditioned media captured on Ni-NTA wells, S-TNF at 1 µg/mL, S-protein-HRP, absorbance at 370 nm

T1 sequence (P01375 77-233): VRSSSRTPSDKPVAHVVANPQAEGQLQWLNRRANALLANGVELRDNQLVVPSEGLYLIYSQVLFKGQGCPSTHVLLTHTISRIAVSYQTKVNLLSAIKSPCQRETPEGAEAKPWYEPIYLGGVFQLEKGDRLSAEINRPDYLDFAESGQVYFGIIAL

fold elevation of S-TNF binding over non-specific binding in control samples: 3 fold
B1: sp55 address domain (human TNFR-1 ecto-domain residues 30-211) with C-terminal myc and His6 tags (receptor)
chain: DAAQPARRAVRSLVPHLGDREKRDSVCPQGKYIHPQNNSICCTKCHKGTYLYNDCPGPGQDTDCRECESGSFTASENHLRHCLSCSKCRKEMGQVEISSCTVDRDTVCGCRKNQYRHYWSENLFQCFNCSLCLNGTVHLSCQEKQNTVCTCHAGFFLRENECVSCSNCKKSLECTKLCLPQIENVKGTEDSGTTRGGPEQKLISEEDLNSAVDHHHHHH
notes: also called p55FL-myc-his; p55FL
